What all share (assay type): in vivo
Series [1] is described as follows: Hypercalcemic effect of PEG-PTH(1-34) in normal female DDY mice. The protocol: (§1) 2 k and 5 k PEG-PTH(1-34) were also adjusted similarly to 30 nmol/mL (calculated as PTH) and allowed to stand on ice immediately before administration.
(§2) Male BDF1 mice at 5 weeks of age (Charles River Japan, Inc.) were measured for their body weight. Immediately before drug administration, blood was collected by orbital puncture into heparinized capillary tubes and measured for baseline levels of blood ionized calcium and pH using a Ca^2+/pH analyzer (Model 348/Bayer Medical Ltd.) to give the corrected level of ionized calcium at pH 7.4 for each sample. The mice received subcutaneous administration of each drug at a dose of 5 mL/kg. […] At 1, 3 and 6 hours after administration, blood was collected by orbital puncture to monitor the time course of corrected blood ionized calcium levels.
The same experiment was repeated on female DDY mice at 5 weeks of age (Charles River Japan, Inc.). The mice received subcutaneous administration of each drug at a dose of 5 mL/kg. […] At 1, 3 and 6 hours after administration, blood was collected by orbital puncture to monitor the time course of corrected blood ionized calcium levels.

Series [2] is described as follows: Pharmacokinetics and bioavailability in rats by subcutaneous route. The protocol:
(§3) Each sample was adjusted to 80 μg/mL by dilution with 25 mmol/L citrate-phosphate buffer (pH 5.0) containing 100 mmol/L NaCl and 0.05 vol % Tween 20 to give a solution for administration. Male SD rats at 6 weeks of age (CLEA Japan, Inc.) were provided for this experiment. Intravenous injection was performed on rats having polyethylene tubes (SP-31, Natsume Seisakusho Co., Ltd.) inserted into the femoral artery and vein. The solutions thus prepared were each administered at a dose of 1 mL/kg through a polyethylene tube inserted into the femoral vein, and blood was collected through a polyethylene tube inserted into the femoral artery before administration and at 5, 15, 30 and 45 minutes as well as 1, 2, 4, 6, 8 and 24 hours after administration. Subcutaneous administration was performed on rats having polyethylene tubes inserted into the femoral artery. The solutions prepared above were each subcutaneously administered at a dose of 1 mL/kg to the dorsal neck region of the rats, and blood was collected in the same manner as used for intravenous injection. These blood samples were centrifuged to collect plasma and stored at −40° C. until assayed for PTH(1-34) or PEG-PTH(1-34) levels.
(§4) The level of PTH(1-34) or PEG-PTH(1-34) was determined by RIA analysis using a Rat PTH IRMA Kit (Immutopics). A Cobra Quantum Model 5005 gamma counter (Packard) was used to measure radioactivity for each sample. The plasma level of PTH(1-34) or PEG-PTH(1-34) was calculated from a calibration curve prepared using PTH(1-34) or PEG-PTH(1-34). The Winnonlin program Ver. 2.1 (Scientific Consulting Inc.) was used to analyze the time course of changes in the calculated plasma PTH(1-34) or PEG-PTH(1-34) levels (FIG. 3: by intravenous route; FIG. 4: by subcutaneous route) to calculate the following as pharmacokinetic parameters: time required to reach the maximum plasma level (Tmax); maximum plasma level (Cmax); area under the curve of plasma levels (AUC); plasma half-life (t1/2); total body clearance (Cltotal); mean residence time in the body (MRT); and bioavailability (BA). […]

Series [3] is described as follows: Pharmacokinetics in rats by intravenous route. The settings on record: 80 μg/mL at 1 mL/kg. The protocol: as §3, §4
The nature of series [4]: Hypercalcemic effect of PEG-PTH(1-34) in normal male BDF1 mice. The protocol:
as §1, §2

The nature of series [5]: Hypotensive effect in anesthetized rats. As to conditions: sc. The protocol: The mono-methoxy 5 k PEG-PTH(1-34) prepared in Example 1(2) was also adjusted similarly to 36.5, 18.3 and 9.1 μg/mL (calculated as PTH(1-34)). The samples thus prepared were then stored on ice and restored to room temperature about 30 minutes before administration.
Female SD rats at 10 weeks of age (Charles River Japan, Inc.) were anesthetized by intraperitoneal administration of 50 mg/kg pentobarbital sodium (Abbott Laboratories). A catheter for blood pressure measurement and a catheter for anesthesia maintenance were inserted into the femoral artery and vein, respectively, of each rat. Anesthesia was maintained using a syringe pump (Terumo Corporation) to ensure continuous injection (at 22.5 mg/kg/hour) of pentobarbital sodium (powder form, Tokyo Kasei Kogyo Co., Ltd.) dissolved in physiological saline (Otsuka Pharmaceutical Co., Ltd.). On the other hand, each catheter for blood pressure measurement was filled with 100 U/mL heparin sodium (Novo Nordisk A/S) in physiological saline. To measure systemic blood pressure, a pressure transducer (Nihon Kohden Corporation) was connected to the catheter for blood pressure measurement and signals from the transducer were input to a blood pressure amplifier (Nihon Kohden Corporation). The resulting data were averaged for use as an indicator of systemic blood pressure. The output of systemic blood pressure was, in turn, input to a measuring unit for instantaneous heart rate (Nihon Kohden Corporation) to determine heart rate. These parameters were continuously recorded on a thermal pen recorder (Graphtec Corporation) at a speed of 5 mm/min. After surgery, an injection needle for administration of a test substance was inserted into the dorsal subcutaneous region of each rat. After each parameter had stabilized, test drugs were administered. […] This figure illustrates changes in blood pressure induced by administration of a negative control (buffer), 50 μg/kg hPTH (1-34) and 36.5 μg/kg 5 k PEG-PTH(1-34) in this order from the upper panel. In addition, the average value of blood pressure before PTH administration and the value at the maximum blood pressure drop after administration were measured for each case to determine the difference between these two values. […] The vertical axis represents the maximum blood pressure drop (mmHg) and the horizontal axis represents the amount of PTH administered.

Where [6] appears, read: subcutaneous, 80 μg/mL at 1 mL/kg.

For orientation: AUC means concentration integrated over time. One may read the MRT as a mean duration of stay, worked out from the concentration-time curve. In general, Tmax refers to the time from dosing to the highest level. “5k PEG-hPTH(1-34): hPTH(1-34) reacted with mPEG 5 k-SPA, fraction having one 5 kDa PEG molecule per PTH molecule”: the “increase in blood ionized calcium levels (in words)” value in series [1] (150 nmol/kg sc) is listed as “gradual increase in blood ionized calcium levels to reach the same maximum value as observed with 500 nmol/kg hPTH(1-34)”. Also, in series [1] (sc, hPTH(1-34) 50-500 nmol/kg, 5 k PEG-PTH(1-34) 150 nmol/kg), the “time of maximum increase in blood ionized calcium levels after administration” value is 3 h. Also, the BA in series [2] (subcutaneous route) is listed as ~71.0%. For the same substance, in series [2] (setting [6]), the AUC was 126.793 ng·h/mL, the MRT amounted to 5.706 h, the time to peak (Tmax) worked out at 48.8 min and the “t ½” value amounted to 6.758 h. In series [3], this substance showed an AUC of 178.547 ng·h/mL, a Cltotal of 449.4 mL/h/kg, an MRT of 2.578 h and a t ½ of 5.706 h. The “increase in blood ionized calcium levels (in words)” value in series [4] (150 nmol/kg sc) is “gradual increase in blood ionized calcium levels to reach the same maximum value as observed with hPTH(1-34)”. Further, the “time of maximum increase in blood ionized calcium levels after administration” value in series [4] (sc, hPTH(1-34) 50-500 nmol/kg, PEG-PTHs 150 nmol/kg) was 3 h. For the same substance, in series [5] (anesthetized female SD rats), the “hypotensive effect after administration (in words)” value is reported as “mild hypotensive effect after administration”. In addition, the “hypotensive effect over doses, maximum blood pressure drop (in words)” value in series [5] (anesthetized rats, hPTH(1-34) 12.5-50 μg/kg, 5 k PEG-PTH(1-34) 9.1-36.5 μg/kg) was “much weaker effect than hPTH(1-34) when administered at a higher dose”.

The record behind these values is patent US20050148763A1, “Peg-binding pth or peg-binding pth derivative” (Chugai Seiyaku Kabushiki Kaisha, priority 2002, published 2005).
